Measured values published in patent US20210047427A1 (Takeda / Millennium, published 2021).

Molecular target: T1, cynomolgus CD38 (cynomolgus monkey, UniProt Q5VAN0 1-301)
T1 construct: In the assays it is native CD38 on cynomolgus monkey blood lymphocytes; also called cyno CD38; monkey CD38
Test: Flow cytometry of cynomolgus monkey whole blood stained with labelled AB79. MFI converted to MOEF with Rainbow Beads. NK (CD3-, CD159a+), B (CD3-, CD20+) and T (CD3+) cells; 3 individuals, mean with SD.
Experimental: The flow cytometric measurements were standardized and the signals are reported in molecules of equivalent soluble fluorescence (MOEF). […] Direct comparison of CD38 expression levels on monkey NK cells (CD3−, CD159a+), B cells (CD3−, CD20+) and T cells (CD3+) and human NK cells (CD3−, CD16/CD56+), B cells (CD3−, CD19+) and T cells (CD3+) were evaluated by flow cytometry.
An aliquot of blood (100 μL) was mixed with appropriate volume of antibody (FIG. 1) and incubated for 15-20 minutes at RT in the dark. After incubation, 1 mL of BD FACS lyse (1×; BD Biosciences; San Jose, Calif.) was added to lyse red blood cells and the cells incubated for 10 minutes at RT in the dark, then centrifuged, decanted and resuspended in 1 mL of staining buffer with bovine serum albumin (BD Biosciences).

T1 sequence (Q5VAN0 whole entry): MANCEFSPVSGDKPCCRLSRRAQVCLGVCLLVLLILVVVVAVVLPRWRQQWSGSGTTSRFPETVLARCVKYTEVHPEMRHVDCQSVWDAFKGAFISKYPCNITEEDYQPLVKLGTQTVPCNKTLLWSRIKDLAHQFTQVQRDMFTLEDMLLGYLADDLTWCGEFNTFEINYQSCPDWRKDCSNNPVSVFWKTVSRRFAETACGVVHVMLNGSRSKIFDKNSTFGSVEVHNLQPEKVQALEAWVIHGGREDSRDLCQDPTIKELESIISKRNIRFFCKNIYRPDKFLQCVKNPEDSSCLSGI

B1: AB79 (antibody, human IgG1, lambda, V domains shown)
VH: EVQLLESGGGLVQPGGSLRLSCAASGFTFDDYGMSWVRQAPGKGLEWVSDISWNGGKTHYVDSVKGQFTISRDNSKNTLYLQMNSLRAEDTAVYYCARGSLFHDSSGFYFGHWGQGTLVTVSS
VL: QSVLTQPPSASGTPGQRVTISCSGSSSNIGDNYVSWYQQLPGTAPKLLIYRDSQRPSGVPDRFSGSKSGTSASLAISGLRSEDEADYYCQSYDSSLSGSVFGGGTKLTVLG
- binding result: binds
